From the DeepSol protein solubility set

Experiment: soluble on expression in E. coli; label from the status in PepcDB or PDB records

Sequence | soluble on expression in E. coli
MGSDKIHHHHHHLAKRKNHAQAIETTGANLGFEPQLWQTANALRGSMDAAEYKHVVLGLIFLKYISDAFEEHRERLQNIPNADPEDPDEYRADNVFWVPPDARWVELRNNARQPNIGELIDQAMIAVERDNPSLKGVLPKDYARPALDQQRLGQLIDLVSNIPVGTASARSKDVLGRVYEYFLSQFASAEGKKGGEFYTPRCVVRLLVEMLEPYQGRVYDPCCGSAGMFIQSVEFIEAHATGNGNGSRARARISIYGQELNYTTWRLAKMNLAIRGIDGRIEQGDTFRNDRFPDLKADYILANPPFNMKEWGGEQLRNDKRWQYGIPPVGNANFAWVQHIVHHLAPAGVAGFVLANGSMSSNQSGEGEIRRKLIEADLVDCMVALPGQLFYSTQIPACLWFLARNRNNGKFRDRRKQILFIDARRLGRMVDRIHRELTDEEIERIACTYHAWRGESDAGEYRDIPGFCKSASLEDVRKHGYVLTPGRYVGSEVREDDDEPFAEKMQWLVAQLREQQAEAAKLDEAIVANLQELGFWEQKR | not soluble
MAHHHHHHMLSDNDLTFHIPSAGLRRMDAWTAPNPSVFSHLHLVGNPDWMSSFSASPQVAAARPALAPPAPVAIEPSAPRPLAAPAAIDAPAPATKKSFLSMFYRGSSNTVSSSVMPPKTSSASFAPMSAPPKALDAFDTPMQRALPVDAQLSVEHLSKLDAVDATISAAPRREPPHPMALGSDTWNALSSVPVPAKTAAGSARLLAPPASIDAVFSRDSKPLWSDLSFASRFRSTAPTLEAFRNAPPAPILSTPPRSPQHQATSSTATVATAFIPVPPKPVTASPLRDTAVSSVEAAAPATMPAARREPRAMAHPLVPVGEDAPAVVTPLLKPVQEIPMVSSKSANLAPSTVNATPPVWGPEPLSLASREPEPSALALPTEFAKSISRPTMQEAQRDEARAAANVRNFISTLFSGSGSDEMDSSTAGNRKADGFNALEFVTNRRGAQAKASQPVDYSTFFNTSLFEDDHDEDSEEGLEKLRRVVLMVMQSAKNSEGTCVSQPTSQSCRRGGGVDATGVAALTTFPSKYTEFSASYQTANNNNADDNEWMQFAR | not soluble
MSTDVAAAQAQSKIDLTKKKNEEINKKSLEEDDEFEDFPIDTWANGETIKSNAVTQTNIWEENWDDVEVDDDFTNELKAELDRYKRENQ | soluble
MSSSRNFDLEYDDYKERRNAAGMGSRASSRNGGRFKPIDKEKEKEKKEIGDYGLPKNEYKMQGYDERSSDVGADPLASVRTLRNNLRVMSLEHRDKDEPVKSHLCQSACDDLSKAEKQLVDLSHKRSDAVVRGDSRQAEQIAKDMDRVKSDAIRNAYSDLMMEDGTMKAFGVNSKWTPDKNPMPSDDWKPMTPMKPRKRAETPKGRKTESRQSNRGNNDNGDQRMTSKATTRSPERRVIPTEPSKPKTTRKNQRLSTIGHVPEAIPVVDTPLPGGSTVQDDPYKMPTYVGRCPHCQLTESGLGRAGGMEKHFAKYCKVMTSCKYCMKLTMVSQLTDHLIYRCEFLQDTMEACNDCGLAIEKEDQKRGGSHPMCRGRRPPTGAQWCPLCTIAVEDNEENWREHLLNNCYNNQRRDGPEKDPWEMKQEQEDILLGAKEKKKREMEEEERLKKEAEIRRQQQQVVVNNTGYPGKMIDADKLVVALQEIQERKKAEKKKKLKDIEKET | not soluble
MGLHRLIYLSCATDGLSYPDLRDIMAKSEVNNLRDGITGMLCYGNGMFLQTLEGDRQKVSETYARILKDPRHHSAEIVEFKAIEERTFINWSMRLVQLGEMDSDTIRRLRLKYSPAATFQPRSMTAEQCFRFLKELYDMSQGS | soluble
SLCGEPGCRHEQTAVKAGRSRNWAGSFAKTPGRLFGVGFIRLYQLTLSGFVGNSCRHIPTCSEYGYEAIARHGLWAGGWMALFRVARCGPGGTSGLDPVPEELDGSKRWWTPWRYWSRHR | soluble
MGSDKIHHHHHHMPHSLHPLFQAIATAPTEQTLRLTVMDNISEYFGVQRWGIYLLDTNNNLASVEAKGVSDTFIEQYQRFGKAVDPVLKYVLENHAPAHEELVLPEGTWKQSELYQRCCSTHDHEHIMTGPLVGQGQLIGTINFARIGHIPAFNHLELASLGAVCTHFSARLAELRKPHSVSGQISNRLTSREIQIANLVAKGLTNAEIGAELWITHNSVKQALKRIFRKLEVSARTEMVAKLRDII | not soluble
MDDATEQEVFNRMQMTQFEEKRFELVVIRAEDTVVVEPLRQRETCPKCHQILSSELSRLWHQFVHMDAYNGFLDGKFQIQLPDFEFVIPCPFSTCSLLFLDLIDARFHYLLEHQSCQLFCCGVRFSDYKTALEHLQGTGSVETEAWDQQKHFLKPVYICNCCNRTWSSRNEYVAHLHGRDHMCPDPVCKYIFETNEKCIRHFFEQHYKHLFLDSRHLLLNYKYFLRYQEKQEERAYGLYVCTTCQRRFRDNKGFQSHVASQNCEFFDRKFFVQVIACKCGHQFKYCYYQRDVLLRNLPVLREAMEHVEREAPFNNMPEDVCNIYRSIIVVIIDVNQRLINEKFTNYQRTSPLKHSSFTPRQMAKLLLEVVDYFWKIM | not soluble
MSLHGEKAPFPLTLIHINDLHARFDETNQKSSTCTNSKECIAGIARVYHTIKQLKSEYKTKNPLYLNAGDNFQGTLWYNLLRWNVTAYFIKELPPDAMTLGNHEFDHSPKGLAPYLAELEKMKIPTVVANLEKNGEPALKDSKIARSIVLKVGNRKVGVIGALYDKTHLVAQTGMVTLTNSIEAVRKEAQELKKKNVNIIVVLSHCGLDGDKQLAEEAGDLIDVIVGAHSHSLLLNKDAKVPYDTKYDTIEGDYPLVVKKSNNHTVLITQARSFGKYVGRLTVNFDCEGEVQSWEGYPIYMNNSVKEGHHHHHH | soluble
MSITLRTYIFLDALQPQLATFIGKTARGFLPVPGQASLWVEIAPGIAINRVTDAALKATKVQPAVQVVERAYGLLEVHHFDQGEVLAAGSTILDKLEVREEGRLKPQVMTHQIIRAVEAYQTQIINRNSQGMMILPGESLFILETQPAGYAVLAANEAEKAANVHLVNVTPYGAFGRLYLAGSEAEIDAAAEAAEAAIRSVSGVAQESFRDR | not soluble
MVTQILGAMESQVGGGPAGPALPNGPLLGTNGATDDSKTNLIVNYLPQNMTQDEFKSLFGSIGDIESCKLVRDKITGQSLGYGFVNYSDPNDADKAINTLNGLKLQTKTIKVSYARPSSASIRDANLYVSGLPKTMSQKEMEQLFSQYGRIITSRILVDQVTGVSRGVGFIRFDKRIEAEEAIKGLNGQKPLGAAEPITVKFANNPSQKTGQALLTHLYQSSARRYAGPLHHQTQRFRLDNLLNMAYGVKSPLSLIARFSPIAIDGMSGLAGVGLSGGAAGAGWCIFVYNLSPEADESVLWQLFGPFGAVTNVKVIRDFTTNKCKGFGFVTMTNYDEAAMAIASLNGYRLGERVLQVSFKTSKQHKA | soluble
MGSDKIHHHHHHMLNFTVGPVMSSEEVRAIGAEQVPYFRTTEFSSTMLENEKFMLEYAKAPEGSKAVFMTCSSTGSMEAVVMNCFTKKDKVLVIDGGSFGHRFVQLCEIHEIPYVALKLEHGKKLTKEKLYEYDNQNFTGLLVNVDETSTAVLYDTMMIGEFCKKNNMFFVCDCVSAFLADPFNMNECGADVMITGSQKVLACPPGISVIVLAPRGVERVEKSKVRTMYFDLKDALKNQERGQTPFTPAVGILLQINERLKEIKKHGGADAEVARIASQAADFRAKIKDLPFELVSESPANGVTSVHPTTANAYDIFLKLKDEYGIWICPNGGEMKDTIFRVGHIGALTHEDNTTLVNAFKDLQKRNLL | not soluble
MSLNDGNAMGQVIQIDEARIRDHLGEMVRGTVEETLNAMLEAEADQLCGAGRYERSPARQDTRAGSYERTLQTKAGDVNLKVPKLRRQTFETAIIERYRRRESSVEEALIEMYLAGISVRRVEDITEALWGTRVSPSTVSNLNKKIYAKIEAWRNRRIEGEHPYLYLDGIVMKRSWAGEVRNVSLLVASAVNAEGFREILGICEGAKEDKSGWSSFLRHLVDRGLKGVQLVVSDACRGLVESVADYLPEARYQRCMVHFYRNVFSHVPSTRVHEVSHMLKAIHAQESRAAADEKARTVIADLRASRMAKAADLVEQAVHETLAYYAFPDIHWRKIRTNNPLERIMKEIRRRTRVVGAFPDGQSCLNLAAARLRHIAGTAWSTKCYMNMRPLYQPQLSETGAVAEGHHHHHH | soluble
MSLKAAVLHGTNDMRFEDIEIKPCESDEVKIKVMAAGICGSDPPRVLKHWKYPVPAIPGHEFSGVIAEVGKDVKNVKVGDRVVAIPFIPCNECEYCKRGLFSLCDDHGMLGAKSFGAFAEYVNIKATNVLPIGDMDFEDAAMIEPLAVAMHGVLNIGVQVGDTVAVMGSGTMGQLVIQGLKIAGAGTIIAVDISDNKLRESKELGADIIINAKDINPVEKIKELTGGKGVDIALECAGSKITQEQCLLITKKKSKIGFLGIAYSDITLSEEAFENIFRKELELKGFWNSYSAPFPGQEWTKGINLVNEGKIKLKEMVSHRFSLEDTYKAFEMIRDRKEEFNKILILPQGVEGHHHHHH | soluble
MIERGKFRSLTLINWNGFFARTFDLDELVTTLSGGNGAGKSTTMAAFVTALIPDLTLLHFRNTTEAGATSGSRDKGLHGKLKAGVCYSMLDTINSRHQRVVVGVRLQQVAGRDRKVDIKPFAIQGLPMSVQPTQLVTETLNERQARVLPLNELKDKLEAMEGVQFKQFNSITDYHSLMFDLGIIARRLRSASDRSKFYRLIEASLYGGISSAITRSLRDYLLPENSG | soluble
MSLKIESNAFRLIEPGVFKKDTLTHDFEEKDIIVKPTKASVCHADLRYYTGNRRPEALAKKLPMALFHEGIGIVEDSKHPDFQQGDKVVIVPNIPSHLRKGTYPTTSFQDNYDENAVFMGSGFDGICQDRMVVSGDNVVKVPTDLDEDVALLAELCSVSLFPINQLDEITTETSPQVAIFGDGPVGYLAATALHYIYGIDKANLIVFGAVQEKLAAFEDFATTHLVFDFDFNQYRGVHTVFECTGGKFSESAINQAIDLIDRQGHIVLMGVTEERVGINTRDVLEKGLTFSGSSRSTKREFEQLIHAFSNKQYQQALRQLIPETYYHIHDTSDLKEAMDDTAAHKGWKKTYLQYHEGHHHHHH | soluble
MSLAAPNAASGVLKLYRAYREQAQRLSDLSDLLAREGHETALSSTRLPIDEVRHVFENRPAYFHAIDAAAEELHKQLSTGDDLASGLRAWLQKNHGIVVRTLPVHAMPNLRRRYDRHSMRLFLSERLSQPDQLREMAMETCLLALREEIGTELEALGLKGEEARRIARFELARYAAHALMMPYGAFLAAAQRAKYDLDVLRSRFNVSFEQAANRLVSLQRPTTAAIPFFLMEIDNAGNRFRLAGAGGFPRARFGGLCPRLNIHAAFAQPGQVLVESVEMPDGDAFLTVSRTLEGEGHHHHHH | not soluble
MSLIKMQVWKKLFAKSPFKPLIRHAEVVVQTVETLEKALDSWARGDYENMKEYAKKVDDLEDIADKIKSELRDSITSKLLMPVQRTDILEYLHMQDKIADAAEDTAKWLLIKRNLDSIPNDIKDIILKMGKESIKAAKLVYEAIKQLDNVLESGFAEKEIKKEYKIIKQIEEVESKIDGLDSKLMEIVFTSELDWKDGLYILNIARTLSNISDKAKDTAERIRVLMNKEGHHHHHH | not soluble
MAHHHHHHMTSPMLMAAENFCFTPQSHFMVKTPKSERAHQCSKLYNEAFVVSNRTGLRSILRANESGRSYLNGGGIIARVWALEEALKAFFNLRKKKFVWGCDQSMWALLLIWSITRPENIKPALLVRRGLISLDYETRYFLYPSKTMVMSGMILHFAGPVHVWKRTLPQYLSEINWYRALSNSSPKREASIRLLKNSTVEMYTFWGSRKDAKLSTVCPISNISDPSWLSGQLKK | soluble
MGSDKIHHHHHHDEEPSDKGSTSPQEPVYTTFTDAGEVVVPGVLPANFTPRSVRVKGDTLFVANTNAADRSVLLLNLTTGELIGRIDSWVRKGVKETFNAEIGDMAVSDRYIFVGMYNSRINIFDRRTLQFVNAIGRSDGKWGDDIYSMTHCYGLRECGERLMVRDKNTIRGYWIYEAVTEPAFRVPWIGKVKVPEGVGYDYQARIHGMAEYDGRMYLTDWYNKSVQVFTPSKMEIVFGEETHITSDAVFKYDDIQPLGLLAYGGELLMSVQKSGKIQRYDPETGDLLGVLAEFPGKEIGRMEIARGMLYYIDLKAGKLMKAKGE | not soluble
